Experimental data taken from the supplement of paper PMC7125110.
± gives the standard error. Variants at the floor of the assay were thinned out.

B1: glmS ribozyme (parent)
chain: AUAAAAGCGCCAGAACUACAGAAAUGUAGUUGACGAGGAGGAGGUUUAUCGAAUUUUCGGCGGAUGCCUCCAAA

Variants of: B1
Experiment: self-cleavage kobs at 2500 uM GlcN6P; higher = faster cleavage; RNA array
Conditions: with glucosamine-6-phosphate
Outline: (§1)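 kobs was derived by fitting per-tile medians to one- or two-exponential decays after normalising signals to baseline and to non-cleaving reference variants. Those signals came from barcoded ribozyme variants transcribed in situ by E. coli RNA polymerase on sequenced MiSeq chips, followed through a hybridised Cy3 probe at 37 °C and imaged over ~14 h. Glucosamine-6-phosphate (40 μM to 10 mM) in HEPES/KCl/Mg(OAc)2 buffer was flowed in. Weighted Michaelis–Menten fits across concentrations then gave kcat and KM.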

Row | Variant | self-cleavage kobs at 2500 uM GlcN6P
1 | AUAAAAGCGCCAGAACUACAGAAAUGUAGCUGACGAGGAGGAGGUUUAUCGAAUUUUCGGCGGAGGGCUCCAAA [U30C U65G C67G] | 0.000128 ± 3.3e-05 s⁻¹
2 | AUAAAAGCGCCAGAACUACAGAAAUGUAGCUGACUAGGAGGAGGUUUAUCGAAUUUUCGGCGGACGCCUCCAAA [U30C G35U U65C] | < 1e-05 s⁻¹
3 | AUAAAAGCGCCAGAACUACAGAAAUGUAGGUGACGAGGACGAGGUGUAUCGAAUUUUCGGCGGAUGCCUCCAAA [U30G G40C U46G] | 4.32e-05 ± 1.4e-05 s⁻¹
4 | AUAAAAGCGCCAGAACUACAGAAAUGUAGUAGUCGAGGAGGAGGUUUAUCGAAUUGUCGGCGGAGGCAUCCAAA [U31A A33U U56G U65G C68A] | < 1e-05 s⁻¹
5 | AUAAAAGCGCCAGAACUACAGAAAUGUACUUGACGAGGAGGAGGUUUAUUGAAUUUUCGGCGGAUGCAUCCAAA [G29C C50U C68A] | 7.07e-05 ± 2.7e-05 s⁻¹
6 | AUAAAAGCGCCAGAACUACAGAAAUGUACUUGACGAAGAGGACGUUUAUCGAAUUUUCGGCGGAUGCCACCAAA [G29C G37A G43C U69A] | < 1e-05 s⁻¹
7 | AUAAAAGCGCCAGAACUACAGAAAUGUAGAUGACGAGGGGGAGGUUUAUCGAAUUUUCGGCGGAUGCCGCCAAA [U30A A39G U69G] | 5.54e-05 ± 2.2e-05 s⁻¹
8 | AUAAAAGCGCCAGAACUACAGAAAUGUAUUUUACGAGGAGGAGGUUUAUGGAAUUUUCGGCGGAUGCCUCCAAA [G29U G32U C50G] | 6.06e-05 ± 2.9e-05 s⁻¹
9 | AUAAAAGCGCCAGAACUACAGAAAUGUAGGUGACGAGGAGGAGAUUUAUCGAAUUUUCGGCGGAUGCCUCCAAA [U30G G44A] | 6.16e-05 ± 1.7e-05 s⁻¹
10 | AUAAAAGCGCCAGAACUACAGAAAUGUACUUGACGAGGAGGAGGUUUAUCGAAUUUUGCGAGAAUGCCUCCAAA [G29C C58G G59C C61A G63A] | < 1e-05 s⁻¹
11 | AUAAAAGCGCCAGAACUACAGAAAUGUACUGGACGAGGAGGAGGUUUAUCGAAUUUUCGGCGGAUGCCUCCAAA [G29C U31G] | < 1e-05 s⁻¹
12 | AUAAAAGCGCCAGAACUACAGAAAUGUAUUUGACGAGGAGGUGGUUUAUCGAAUUUUCGGCGGAUGCAUCUAAA [G29U A42U C68A C71U] | < 1e-05 s⁻¹
13 | AUAAAAGCGCCAGAACUACAGAAAUGUAUUUGACGAGGAGGAGGUUUAUCGAAAUUUCGGCGGAUGCCUACAAA [G29U U54A C70A] | 6.05e-05 ± 3e-05 s⁻¹
14 | AUAAAAGCGCCAGAACUACAGAAAUGUAGUAGACGUGGAGGAGGUUUAUCGAAUUUUCAGCGGAUGCCUCCAAA [U31A A36U G59A] | < 1e-05 s⁻¹
15 | AUAAAAGCGCCAGAACUACAGAAAUGUAGGUGACGAGGAGGAGGUCUAUCGAAUUUUCGGCGGAUGCUUCCAAA [U30G U46C C68U] | 8.16e-05 ± 1.7e-05 s⁻¹
16 | AUAAAAGCGCCAGAACUACAGAAAUGUAGAUGACGAGAGGGAGGUUUAUCGAAUUUUAGGCGCAUGCCUCAAAA [U30A G38A A39G C58A G63C C71A] | < 1e-05 s⁻¹
17 | AUAAAAGCGCCAGAACUACAGAAAUGUACUUGACGAGGAGAAGGUUUAUCGAAUUUUCGGCGGAUGCCUCCAAA [G29C G41A] | 7.06e-05 ± 3.1e-05 s⁻¹
18 | AUAAAAGCGCCAGAACUACAGAAAUGUACUUGACGAGGAGGAGCUUUAUUGAAUUUUCGGCGGAUUCCUCCAAA [G29C G44C C50U G66U] | < 1e-05 s⁻¹
19 | AUAAAAGCGCCAGAACUACAGAAAUGUAUUUGACGAGCAGGAGGUUUAUCGAAUUGUCGGCGGAUGCCUCCAAA [G29U G38C U56G] | < 1e-05 s⁻¹
20 | AUAAAAGCGCCAGAACUACAGAAAUGUAGUAGACGGGGAGGAGGUUUAUCGAAUUUUCGGCGAUUGCCUCUAAA [U31A A36G G63A A64U C71U] | < 1e-05 s⁻¹
21 | AUAAAAGCGCCAGAACUACAGAAAUGUAGCUGACGAGGAGGAGGUUUAUCGAAUUUUCGGCGAAUGCCGCCAAA [U30C G63A U69G] | 8.06e-05 ± 3.9e-05 s⁻¹
22 | AUAAAAGCGCCAGAACUACAGAAAUGUACUUGAUGAUGAGGAGGUUUAUCGAAUUUUCGGCGGAUGCCUUCAAA [G29C C34U G37U C70U] | 0.000116 ± 3.3e-05 s⁻¹
23 | AUAAAAGCGCCAGAACUACAGAAAUGUAGAUGACGAGGAGGAGGUGUAUCGAAUUUUCGGCGGAUGCGUCCAAA [U30A U46G C68G] | 0.000143 ± 6.7e-05 s⁻¹
24 | AUAAAAGCGCCAGAACUACAGAAAUGUAGGUGACUAGGAGGAGGUUUAUCGAAUUUUCUGCGGAUGCCUCCAAA [U30G G35U G59U] | < 1e-05 s⁻¹
25 | AUAAAAGCGCCAGAACUACAGAAAUGUAUUUGACGAGGAGGAGGAUUAUCGAACCUUCGGCCGAUGCCUCCAAA [G29U U45A U54C U55C G62C] | < 1e-05 s⁻¹
26 | AUAAAAGCGCCAGAACUACAGAAAUGUAGGUGACGAGGAGGAGGAUUAUCGAAUUUUGGGCGGAUGCCUCCAAA [U30G U45A C58G] | 9.63e-05 ± 1.6e-05 s⁻¹
27 | AUAAAAGCGCCAGAACUACAGAAAUGUACUUCACGAGGAGGAGGUUUAUCGAAUUUUCGGCGGAUGCCUCCAAA [G29C G32C] | 2.89e-05 ± 9.4e-06 s⁻¹
28 | AUAAAAGCGCCAGAACUACAGAAAUGUACUUGACGAGGAGGAGGUUUAUCGAAGUUUCGGCGGAUGCAUCGAAA [G29C U54G C68A C71G] | 9.33e-05 ± 4.3e-05 s⁻¹
29 | AUAAAAGCGCCAGAACUACAGAAAUGUAGCUGACAAGGAGGAGGUUUAUCGAAUUUUCGGCGGAUGGCUCCAAA [U30C G35A C67G] | < 1e-05 s⁻¹

Variants of: B1
Experiment: self-cleavage kobs at 10000 uM GlcN6P; higher = faster cleavage; RNA array
Conditions: with glucosamine-6-phosphate
Outline: as §1

Row | Variant | self-cleavage kobs at 10000 uM GlcN6P
30 | AUAAAAGCGCCAGAACUACAGAAAUGUAGCUGACGAGGAGGAGGUUUAUCGAAUUUUCGGCGGAGGGCUCCAAA [U30C U65G C67G] | 2.81e-05 ± 1.3e-05 s⁻¹
31 | AUAAAAGCGCCAGAACUACAGAAAUGUAGGUGACGAGGAGGAGAUUUAUCGAAUUUUCGGCGGAUGCCUCCAAA [U30G G44A] | 6.05e-05 ± 2e-05 s⁻¹
32 | AUAAAAGCGCCAGAACUACAGAAAUGUAGGUGACGAGGAGGAGGUCUAUCGAAUUUUCGGCGGAUGCUUCCAAA [U30G U46C C68U] | 0.000214 ± 5.2e-05 s⁻¹
33 | AUAAAAGCGCCAGAACUACAGAAAUGUAGAUGACGAGAGGGAGGUUUAUCGAAUUUUAGGCGCAUGCCUCAAAA [U30A G38A A39G C58A G63C C71A] | < 1e-05 s⁻¹
34 | AUAAAAGCGCCAGAACUACAGAAAUGUACUUGACGAGGAGAAGGUUUAUCGAAUUUUCGGCGGAUGCCUCCAAA [G29C G41A] | 5.29e-05 ± 2.1e-05 s⁻¹
35 | AUAAAAGCGCCAGAACUACAGAAAUGUACUUGAUGAUGAGGAGGUUUAUCGAAUUUUCGGCGGAUGCCUUCAAA [G29C C34U G37U C70U] | 3.91e-05 ± 1.8e-05 s⁻¹
36 | AUAAAAGCGCCAGAACUACAGAAAUGUAGGUGACGAGGAGGAGGAUUAUCGAAUUUUGGGCGGAUGCCUCCAAA [U30G U45A C58G] | 0.000163 ± 4.1e-05 s⁻¹
37 | AUAAAAGCGCCAGAACUACAGAAAUGUACUUCACGAGGAGGAGGUUUAUCGAAUUUUCGGCGGAUGCCUCCAAA [G29C G32C] | 9.51e-05 ± 1.2e-05 s⁻¹
